In US20120183527A1:

Assays:
[1] = target: biotinylated Aβ oligomer bound to Neutravidin (Aβ42 oligomer SPR sensor) (UniProt P05067); assay: SPR, biotin-tagged Aβ on Neutravidin sensor (Oligomer sensor)
[2] = target: C-terminal monomer (Aβ monomer coupled at the carboxyl terminus) (UniProt P05067); assay: SPR, biotin-tagged Aβ on Neutravidin sensor (C-terminal monomer sensor)
[3] = target: N-terminal monomer (Aβ monomer coupled at the amino terminus) (UniProt P05067); assay: SPR, biotin-tagged Aβ on Neutravidin sensor (N-terminal monomer sensor)
Chain of N-terminal monomer (Aβ monomer coupled at the amino terminus) (P05067 672-713): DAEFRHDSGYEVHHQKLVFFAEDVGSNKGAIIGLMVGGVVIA

[4] = target: Aβ fibril (Aβ42 fibril) (UniProt P05067); assay: ELISA, Aβ fibril plate, fitted maximum
Chain of Aβ fibril (Aβ42 fibril) (P05067 672-713 limits assumed): as the sequence (P05067 672-713) above

[5] = target: Aβ monomer peptide (Aβ42 Peptide Monomer) on ELISA plates (UniProt P05067); assay: ELISA, Aβ monomer plate, fitted maximum
Chain of Aβ monomer peptide (Aβ42 Peptide Monomer) on ELISA plates (P05067 672-713 limits assumed): as the sequence (P05067 672-713) above

[6] = target: globular Aβ oligomer (Aβ42 oligomers) on ELISA plates (UniProt P05067); assay: ELISA, Aβ oligomer plate, fitted maximum
Chain of globular Aβ oligomer (Aβ42 oligomers) on ELISA plates (P05067 672-713 limits assumed): as the sequence (P05067 672-713) above

[7] = target: Aβ fibril (Aβ42 fibril) (UniProt P05067); assay: ELISA, Aβ fibril plate, typical half maximum titer
[8] = target: Aβ monomer peptide (Aβ42 Peptide Monomer) on ELISA plates (UniProt P05067); assay: ELISA, Aβ monomer plate, typical half maximum titer
[9] = target: globular Aβ oligomer (Aβ42 oligomers) on ELISA plates (UniProt P05067); assay: ELISA, Aβ oligomer plate, typical half maximum titer
[10] = target: Aβ fibril (Aβ42 fibril) (UniProt P05067); assay: ELISA half-max titer, Aβ fibril plate against blank plate
[11] = target: Aβ monomer peptide (Aβ42 Peptide Monomer) on ELISA plates (UniProt P05067); assay: ELISA half-max titer, Aβ monomer plate against blank plate
[12] = target: globular Aβ oligomer (Aβ42 oligomers) on ELISA plates (UniProt P05067); assay: ELISA half-max titer, Aβ oligomer plate against blank plate
[13] = target: Aβ fibril (Aβ42 fibril) (UniProt P05067); assay: ELISA, best fit of curves, blank plate against Aβ fibril plate
[14] = target: Aβ monomer peptide (Aβ42 Peptide Monomer) on ELISA plates (UniProt P05067); assay: ELISA, best fit of curves, blank plate against Aβ monomer plate
[15] = target: globular Aβ oligomer (Aβ42 oligomers) on ELISA plates (UniProt P05067); assay: ELISA, best fit of curves, blank plate against Aβ oligomer plate
[16] = target: Aβ monomer peptide (Aβ42 Peptide Monomer) on ELISA plates (UniProt P05067); assay: competition ELISA on Aβ monomer plates, IVIG in 3-fold dilutions from 1 mg/ml, competitor thyroglobulin 40 µg/ml
[17] = target: globular Aβ oligomer (Aβ42 oligomers) on ELISA plates (UniProt P05067); assay: ELISA on globular Aβ oligomer plates with chaotropic salt elution (avidity); this end, printed '>4M', is untreated IVIG (50% not reached at 4M, the highest concentration used)

Chain of C-terminal monomer (Aβ monomer coupled at the carboxyl terminus) (P05067 672-713): as above
Chain of biotinylated Aβ oligomer bound to Neutravidin (Aβ42 oligomer SPR sensor) (P05067 672-713 limits assumed): as the sequence (P05067 672-713) above

Kd [1] [nM] | Kd [2] [nM] | Kd [3] [nM] | maximum binding value (A450 nm units) [4] | maximum binding value (A450 nm units) [5] | maximum binding value (A450 nm units) [6] | half maximum titer [7] | half maximum titer [8] | half maximum titer [9] | fold by which the blank plate half maximum binding titer is lower than the titer on this plate [10] [fold] | fold by which the blank plate half maximum binding titer is lower than the titer on this plate [11] [fold] | fold by which the blank plate half maximum binding titer is lower than the titer on this plate [12] [fold] | fold by which maximum binding on blank plates exceeds that on the amyloid plate [13] [fold] | fold by which maximum binding on blank plates exceeds that on the amyloid plate [14] [fold] | fold by which maximum binding on blank plates exceeds that on the amyloid plate [15] [fold] | percent of control binding in presence of competitor [16] [%] | ammonium thiocyanate concentration for 50% maximal binding [17] [M] | Substance
69 | 47 | 158 |  |  |  |  |  |  |  |  |  |  |  |  |  |  | 6E10 monoclonal anti-Aβ antibody
 |  |  | 2.82 | 2.7 | 2.88 | 15.8 | 42.8 | 9.42 | 6.5 | 17.6 | 3.9 | 1.6 | 1.6 | 1.6 | 50 | 4 | intravenous immunoglobulin (IVIG; Gammagard Liquid, Baxter) (antibody)
